What was measured:
AnkB ΔZZUD = biological target: T1, AnkB ΔZZUD (human, UniProt Q01484-2 1-1872); assay: ITC
T1 chain: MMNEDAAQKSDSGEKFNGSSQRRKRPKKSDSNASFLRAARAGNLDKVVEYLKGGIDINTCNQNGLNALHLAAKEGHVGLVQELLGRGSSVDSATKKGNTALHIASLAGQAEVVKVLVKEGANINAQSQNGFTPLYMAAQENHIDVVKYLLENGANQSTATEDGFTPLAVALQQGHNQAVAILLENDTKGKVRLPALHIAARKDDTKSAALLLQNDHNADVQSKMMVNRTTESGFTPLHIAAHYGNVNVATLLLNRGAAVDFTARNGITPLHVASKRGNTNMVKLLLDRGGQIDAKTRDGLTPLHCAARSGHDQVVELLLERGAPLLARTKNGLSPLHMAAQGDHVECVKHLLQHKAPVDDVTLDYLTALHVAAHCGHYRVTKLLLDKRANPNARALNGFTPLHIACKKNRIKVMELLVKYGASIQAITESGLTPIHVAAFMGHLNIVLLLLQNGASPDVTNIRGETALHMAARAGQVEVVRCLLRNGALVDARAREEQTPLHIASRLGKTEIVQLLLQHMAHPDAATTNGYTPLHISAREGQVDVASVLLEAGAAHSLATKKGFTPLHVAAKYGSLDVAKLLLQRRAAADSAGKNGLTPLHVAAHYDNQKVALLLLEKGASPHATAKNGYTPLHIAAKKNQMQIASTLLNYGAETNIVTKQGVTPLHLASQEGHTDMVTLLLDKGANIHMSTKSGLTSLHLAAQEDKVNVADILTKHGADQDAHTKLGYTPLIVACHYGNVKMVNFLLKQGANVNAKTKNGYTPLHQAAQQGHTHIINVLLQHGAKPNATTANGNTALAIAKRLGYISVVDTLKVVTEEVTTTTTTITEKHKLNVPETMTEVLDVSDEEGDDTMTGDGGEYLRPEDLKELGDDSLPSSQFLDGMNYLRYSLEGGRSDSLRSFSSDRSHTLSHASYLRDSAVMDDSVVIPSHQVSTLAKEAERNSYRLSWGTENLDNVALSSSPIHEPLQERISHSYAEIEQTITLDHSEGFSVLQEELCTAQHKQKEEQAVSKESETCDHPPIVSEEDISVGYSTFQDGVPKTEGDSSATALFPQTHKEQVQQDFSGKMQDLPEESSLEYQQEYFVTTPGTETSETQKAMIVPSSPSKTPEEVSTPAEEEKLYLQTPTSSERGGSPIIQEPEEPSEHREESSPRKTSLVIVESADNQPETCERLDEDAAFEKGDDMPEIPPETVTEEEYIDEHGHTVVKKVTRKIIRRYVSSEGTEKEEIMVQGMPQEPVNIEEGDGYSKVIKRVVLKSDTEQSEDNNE

[1] = biological target: T2, AnkG 38–903 (MBD + AI-c + AI-b) (rat, UniProt O70511-1 38-903); assay: ITC
T2 chain: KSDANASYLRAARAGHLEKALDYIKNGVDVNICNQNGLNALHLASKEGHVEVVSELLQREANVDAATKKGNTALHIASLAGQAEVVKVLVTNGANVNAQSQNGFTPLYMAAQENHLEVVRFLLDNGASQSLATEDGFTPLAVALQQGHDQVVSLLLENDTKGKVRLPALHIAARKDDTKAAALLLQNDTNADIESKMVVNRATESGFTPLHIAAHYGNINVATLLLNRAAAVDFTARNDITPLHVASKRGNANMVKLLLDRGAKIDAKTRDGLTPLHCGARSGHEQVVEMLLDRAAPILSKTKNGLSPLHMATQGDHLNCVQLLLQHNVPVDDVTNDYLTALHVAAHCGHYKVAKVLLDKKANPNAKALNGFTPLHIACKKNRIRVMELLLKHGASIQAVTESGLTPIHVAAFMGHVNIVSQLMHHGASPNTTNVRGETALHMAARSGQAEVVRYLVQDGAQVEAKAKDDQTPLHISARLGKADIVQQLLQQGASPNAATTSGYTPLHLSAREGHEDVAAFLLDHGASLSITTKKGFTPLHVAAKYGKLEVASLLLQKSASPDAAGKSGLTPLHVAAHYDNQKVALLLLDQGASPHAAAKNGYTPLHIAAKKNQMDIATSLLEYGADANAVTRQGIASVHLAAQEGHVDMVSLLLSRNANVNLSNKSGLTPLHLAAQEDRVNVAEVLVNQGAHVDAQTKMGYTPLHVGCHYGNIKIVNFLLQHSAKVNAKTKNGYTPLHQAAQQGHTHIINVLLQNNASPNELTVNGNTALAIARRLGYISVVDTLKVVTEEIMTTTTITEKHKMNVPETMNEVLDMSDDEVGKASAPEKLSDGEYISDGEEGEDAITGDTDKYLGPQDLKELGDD

- Kd (AnkB ΔZZUD): 14 µM
- Kd [1]: 4.2 µM
Binder: SDDSLVDYGEGGEGQFNEDGSFIGQYTV (domain or fragment) [NF186 (aa 1187–1214)]

From paper PMC5779224 (2017)
